# Reference: publication PMC3380022, “Basic Residues R260 and K357 Affect the Conformational Dynamics of the Major Facilitator Superfamily Multidrug Transporter LmrP” (PLoS ONE, 2012)
# Key:
# [1] = tested on: CC[n+]1c(-c2ccccc2)c2cc(N)ccc2c2ccc(N)cc21; test: cells, lysate or membranes; conditions: 50 mM KPi pH 7.0, 5 mM MgSO4, no proton-motive force, 0.25-10 µM ethidium bromide, non-expressing control subtracted
# [2] = tested on: CC[n+]1c(-c2ccccc2)c2cc(N)ccc2c2ccc(N)cc21; test: facilitated ethidium influx in ATP-depleted cells, fluorimetry, hyperbolic fit; format: cell-based, Lactococcus lactis; conditions: 50 mM KPi pH 7.0, 5 mM MgSO4, no proton-motive force, 0.25-10 µM ethidium bromide, non-expressing control subtracted
Substance,Km [1],Km [2]
LmrP (Lactococcus lactis),0.92 ± 0.30 µM,
LmrP (Lactococcus lactis; K357A),,1.42 ± 0.29 µM
LmrP (Lactococcus lactis; R260A),,1.49 ± 0.68 µM
